From the Immune Epitope Database (IEDB)

Columns and labels:
HLA-B*58:01 = experiment: IEDB peptide-MHC binding, purified MHC/direct/fluorescence; filed as Kd, often an IC50 or EC50 that approximates it; ≥ and ≤ were set here for values at or beyond the usual limits of such assays
HLA-A*24:03 = experiment: as above
HLA-A*02:01 [1] = experiment: as above
HLA-A*11:01 = experiment: as above
HLA-A*01:01 [2] = experiment: as above
HLA-A*26:01 [3] = experiment: as above
HLA-A*69:01 = experiment: as above
HLA-B*40:01 = experiment: as above
HLA-B*08:01 [4] = experiment: as above
HLA-A*03:01 = experiment: as above
HLA-B*07:02 = experiment: as above
HLA-B*44:02 = experiment: as above
HLA-A*31:01 = experiment: as above
HLA-B*27:05 = experiment: as above
HLA-B*15:01 [5] = experiment: as above
HLA-B*08:01 [6] = experiment: IEDB peptide-MHC binding, purified MHC/competitive/radioactivity; filed as Kd, often an IC50 or EC50 that approximates it; ≥ and ≤ were set here for values at or beyond the usual limits of such assays
HLA-A*24:02 = experiment: as above
HLA-A*30:02 = experiment: as above
HLA-A*01:01 [7] = experiment: as above
HLA-A*26:01 [8] = experiment: as above
HLA-A*23:01 = experiment: as above
HLA-A*29:02 = experiment: as above
HLA-B*15:01 [9] = experiment: as above; conditions: source organism: Vaccinia virus WR
HLA-A*02:01 [10] = experiment: IEDB peptide-MHC binding, purified MHC/competitive/fluorescence; filed as Kd, often an IC50 or EC50 that approximates it; ≥ and ≤ were set here for values at or beyond the usual limits of such assays; conditions: source organism: Variola virus
HLA-A*02:03 = experiment: IEDB peptide-MHC binding, purified MHC/competitive/radioactivity; filed as Kd, often an IC50 or EC50 that approximates it; ≥ and ≤ were set here for values at or beyond the usual limits of such assays; conditions: source organism: Vaccinia virus WR
HLA-A*02:06 = experiment: as above; conditions: source organism: Vaccinia virus WR
HLA-A*02:02 = experiment: as above; conditions: source organism: Vaccinia virus WR
[11] = source organism: Rickettsia prowazekii
[12] = source organism: SARS coronavirus Tor2
[13] = source organism: Vaccinia virus WR
[14] = source organism: Dengue virus 4 Philippines/H241/1956
[15] = source organism: Salmonella enterica
[16] = source organism: Salmonella enterica subsp. enterica serovar Typhi
[17] = source organism: Influenza A virus (A/Ann Arbor/6/1960(H2N2))
[18] = source organism: Mammarenavirus lassaense

IYSAEFKNY
Kd (HLA-B*58:01; [11]): ≥ 20 µM | Kd (HLA-A*24:03; [11]): 1.41 µM | Kd (HLA-A*02:01 [1]; [11]): ≥ 20 µM | Kd (HLA-A*11:01; [11]): ≥ 20 µM | Kd (HLA-A*01:01 [2]; [11]): ≥ 20 µM | Kd (HLA-A*26:01 [3]; [11]): ≥ 20 µM | Kd (HLA-A*69:01; [11]): ≥ 20 µM | Kd (HLA-B*40:01; [11]): ≥ 20 µM | Kd (HLA-B*08:01 [4]; [11]): ≥ 20 µM | Kd (HLA-A*03:01; [11]): ≥ 20 µM | Kd (HLA-B*07:02; [11]): ≥ 20 µM | Kd (HLA-B*44:02; [11]): ≥ 20 µM | Kd (HLA-A*31:01; [11]): ≥ 20 µM | Kd (HLA-B*27:05; [11]): ≥ 20 µM | Kd (HLA-B*15:01 [5]; [11]): 20 µM

SLLKNDVPL
Kd (HLA-B*08:01 [6]; source organism: Dengue virus 1 Brazil/97-11/1997): 0.124 µM

IYNEKVAGF
Kd (HLA-A*24:02; [12]): ≥ 26.6 µM | Kd (HLA-A*30:02; [12]): ≥ 22.7 µM | Kd (HLA-A*01:01 [7]; [12]): ≥ 78.1 µM | Kd (HLA-A*26:01 [8]; [12]): 3.55 µM | Kd (HLA-A*23:01; [12]): 19.7 µM | Kd (HLA-A*29:02; [12]): 19.8 µM

LFFFVYENAF
Kd (HLA-A*24:02; [12]): 0.185 µM | Kd (HLA-A*30:02; [12]): ≥ 51.1 µM | Kd (HLA-A*01:01 [7]; [12]): 9.72 µM | Kd (HLA-A*26:01 [8]; [12]): 14.5 µM | Kd (HLA-A*23:01; [12]): 0.0588 µM | Kd (HLA-A*29:02; [12]): 0.107 µM

KYLPNGDYI
Kd (HLA-A*24:03; source organism: Vibrio parahaemolyticus): 0.0129 µM

LTIPPTAGIL
Kd (HLA-B*08:01 [6]; source organism: Dengue virus 2 Jamaica/1409/1983): 1.1 µM

SMHFYGWSL
Kd (HLA-B*08:01 [6]; [13]): 0.00285 µM | Kd (HLA-B*15:01 [9]): 0.063 µM | Kd (HLA-A*02:01 [10]): 0.303 µM

RKLTSRETAL
Kd (HLA-B*08:01 [6]; [14]): 0.178 µM

RPQLGVGDV
Kd (HLA-B*58:01; [15]): ≥ 20 µM | Kd (HLA-A*24:03; [16]): 6.18 µM | Kd (HLA-A*02:01 [1]; [15]): ≥ 20 µM | Kd (HLA-A*11:01; [15]): ≥ 20 µM | Kd (HLA-A*01:01 [2]; [15]): ≥ 20 µM | Kd (HLA-A*26:01 [3]; [15]): ≥ 20 µM | Kd (HLA-A*69:01; [15]): ≥ 20 µM | Kd (HLA-B*40:01; [15]): ≥ 20 µM | Kd (HLA-B*08:01 [4]; [15]): ≥ 20 µM | Kd (HLA-A*03:01; [15]): ≥ 20 µM | Kd (HLA-B*07:02; [16]): 0.38 µM | Kd (HLA-B*44:02; [15]): ≥ 20 µM | Kd (HLA-A*31:01; [15]): ≥ 20 µM | Kd (HLA-B*27:05; [15]): ≥ 20 µM | Kd (HLA-B*15:01 [5]; [15]): ≥ 20 µM

PFVVSTGYHF
Kd (HLA-A*24:02; [12]): 0.0679 µM | Kd (HLA-A*30:02; [12]): 11.8 µM | Kd (HLA-A*01:01 [7]; [12]): 4.89 µM | Kd (HLA-A*26:01 [8]; [12]): 0.974 µM | Kd (HLA-A*23:01; [12]): 0.00303 µM | Kd (HLA-A*29:02; [12]): 0.257 µM

YYFMKFRRVF
Kd (HLA-A*24:02; [12]): 0.00392 µM | Kd (HLA-A*30:02; [12]): ≥ 22.2 µM | Kd (HLA-A*01:01 [7]; [12]): 3.18 µM | Kd (HLA-A*26:01 [8]; [12]): 1.75 µM | Kd (HLA-A*23:01; [12]): 0.00151 µM | Kd (HLA-A*29:02; [12]): 0.0028 µM

RQEMASRGLW
Kd (HLA-A*24:02; [17]): 9.01 µM | Kd (HLA-A*30:02; [17]): 4.35 µM | Kd (HLA-A*01:01 [7]; [17]): ≥ 70.4 µM | Kd (HLA-A*26:01 [8]; [17]): ≥ 69.7 µM | Kd (HLA-A*23:01; [17]): 1.73 µM | Kd (HLA-A*29:02; [17]): 1.88 µM

LHRMDLGVPL
Kd (HLA-B*08:01 [6]; [14]): 1.01 µM

ANITHFCSF
Kd (HLA-B*08:01 [6]; [13]): 10.6 µM | Kd (HLA-B*15:01 [9]): 0.015 µM

FNKGHFTRL
Kd (HLA-B*08:01 [6]; source organism: Vaccinia virus Copenhagen): 0.0163 µM

IQPQWIAASI
Kd (HLA-B*08:01 [6]; [14]): 0.858 µM

NLRCHSAHV
Kd (HLA-A*02:03): 0.011 µM | Kd (HLA-A*02:06): 8.03 µM | Kd (HLA-B*08:01 [6]; [13]): 0.00124 µM | Kd (HLA-A*02:02): 0.384 µM

AGFTAGLSY
Kd (HLA-A*24:02; [18]): ≥ 77.5 µM | Kd (HLA-A*30:02; [18]): 0.149 µM | Kd (HLA-A*01:01 [7]; [18]): ≥ 21.1 µM | Kd (HLA-A*26:01 [8]; [18]): ≥ 77.9 µM | Kd (HLA-A*23:01; [18]): ≥ 69.9 µM | Kd (HLA-A*29:02; [18]): 0.0604 µM
